A short description of this series: soluble on expression in E. coli; label from the status in PepcDB or PDB records.
“MTSRWGKYLLSGIMIAVLAGCQSRPTDRGQQYKDGRLEQSLELVNEPNAAGKPVNAKDYSDQVKVINQSSPGLYNRNSDTFNAVQNWMLAGADTSKLSLFGLNAYQMEGVDNFGNVQFTGYYTPVLQARYTPQGEFRHPLYRMPAKGKRRLPDRAAIYAGALDNRNLIIAYTNSLVDNFMMEVQGSGYVDYGDGRPLTFFGYAGKNGHAYRSIGKVLIDRGEVARADMSMQAIRQWAENHSEAEVRELLEQNPSFVFFKPVMYAPVKGASAVPLIAKASVASDKSLIPPGTTLLAEVPLLDDQGKFTGKYQMRLMVALDVGGAIKGQHFDIYQGIGHEAGQAAGFYNHYGRVWVLKNAQSSGPLFTAYKGGTQSEPTSNDSSLLVNNQDR”: the “soluble on expression in E. coli” value is listed as “not soluble”. As to “MSLKIADIQVRTEHFPLTRPYRIAFRSIEEIDNLIVEIRTADGLLGLGAASPERHVTGETLEACHAALDHDRLGWLMGRDIRTLPRLCRELAERLPAAPAARAALDMALHDLVAQCLGLPLVEILGRAHDSLPTSVTIGIKPVEETLAEAREHLALGFRVLKVKLCGDEEQDFERLRRLHETLAGRAVVRVDPNQSYDRDGLLRLDRLVQELGIEFIEQPFPAGRTDWLRALPKAIRRRIAADESLLGPADAFALAAPPAACGIFNIKLMKCGGLAPARRIATIAETAGIDLMWGCMDESRISIAAALHAALACPATRYLDLDGSFDLARDVAEGGFILEDGRLRVTERPGLGLVYPDEGHHHHHH”, the “soluble on expression in E. coli” value is listed as “soluble”.

On to “MKATSEELAIFVSVVESGSFSRAAEQLGQANSAVSRAVKKLEMKLGVSLLNRTTRQLSLTEEGERYFRRVQSILQEMAAAESEIMETRNTPRGLLRIDAATPVVLHFLMPLIKPFRERYPEVTLSLVSSETIINLIERKVDVAIRAGTLTDSSLRARPLFNSYRKIIASPDYISRYGKPETIDDLKQHVCLGFTEPASLNTWPIACSDGQLHEVKYGLSSNSGETLKQLCLSGNGIACLSDYMIDKEIARGELVELMADKVLPVEMPFSAVYYSDRAVSTRIRAFIDFLSEHVKTAPGGVMPIS”, for which the “soluble on expression in E. coli” value is reported as “not soluble”. In the case of “MSLADSSYYDEDYRPQYHFTPEANWMNDPNGMVYYAGEYHLFYQYHPYGLQWGPMHWGHAVSKDLVTWEHLPVALYPDEKGTIFSGSAVVDKNNTSGFQTGKEKPLVAIYTQDREGHQVQSIAYSNDKGRTWTKYAGNPVIPNPGKKDFRDPKVFWYEKEKKWVMVLAAGDRILIYTSKNLKQWTYASEFGQDQGSHGGVWECPDLFELPVDGNPNQKKWVMQVSVGNGAVSGGSGMQYFVGDFDGTHFKNENPPNKVLWTDYGRDFYAAVSWSDIPSTDSRRLWLGWMSNWQYANDVPTSPWRSATSIPRELKLKAFTEGVRVVQTPVKELETIRGTSKKWKNLTISPASHNVLAGQSGDAYEINAEFKVSPGSAAEFGFKVRTGENQFTKVGYDRRNAKLFVDRSESGNDTFNPAFNTGKETAPLKPVNGKVKLRIFVDRSSVEVFGNDGKQVITDIILPDRSSKGLELYAANGGVKVKSLTIHPLKKVWGTTPFMSNMTGWTTVNGTWADTIEGKQGRSDGDSFILSSASGSDFTYESDITIKDGNGRGAGALMFRSDKDAKNGYLANVDAKHDLVKFFKFENGAASVIAEYKTPIDVNKKYHLKTEAEGDRFKIYLDDRLVIDAHDSVFSEGQFGLNVWDATAVFQNVTKESEGHHHHHH”, the “soluble on expression in E. coli” value is given as “soluble”. The value for “MAYNLKEVAKKPERLTGGHRMCAGCGAPIVVRQVLKALKPEDHAVISAATGCLEVSTFIYPYTAWKDSFIHSAFENTGATISGAEAAYKVLKKKGKIEGETKFIAFGGDGGTYDIGLQALSGAMERGHDMVYVCYDNGAYMNTGIQRSSATPKYADTTTSPVGKKIPGKMQPRKDLTEVLVNHRIPYVAQTAPFGNMKDLYEKAEKAIYTPGPAFLNVLAPCPRGWRYNTPDLMELSKLAVETCFWPLYEVIDGKYIINYKPKEKVPVKEFLKLQGRFKHLFKAGNEYMLEEIQKEVDLRWERLLKLAGEA” was “not soluble”; that for “MSLENIEKIEVRGIRASNKANINEKRFSNAVVDAVTAEDIGKFPDSDVGQALGRVPGVTVGRTFGQGSSVSIRGTDPLMTLTTLNGQNVASTGWYDQMNVDRSFNYSMLPSELIGGMEVYKSTQANLVEGGIGGTVIVKTRKPLDMDANSVFASVKGEYGSVNEDVAPELSGLYSWKNDDETFGVLLAGSYIDREYLRTGTEADLDWGGRSSVQPSSFLQEQERTALDATVQFRPTDNLEFGAHVLSLKLGADSIGANMYIETDTNWGEGASHCKQFNAAGVCTLSVTPESDPSNVFFQNWARKGEMTSDTFELNADYKGDGFAISGVAGKTKAEGGTQMSANFGYGWWGDKFGQVKWAGTVDATGKQIDINGRDMGFTQDQLDTTVGTSTWTGIKGPNSDEETYLQLDVDFDLDFGVINKFETGVRYTQHEFEKSEYRAIYDPAKKNEFKTSDLYSGTMKLGYDGWTIPKADLDAMINATESLVDQFAYSRSAYGLIEEDNFSMYGMFSFDGEGFRGNFGLRYIQTDVTSSGHIIDNSPADILGVNQGWSEEIHSISDSYSDVLPSFNISFDLAPDLILRMSAGQAITRPNYDNLFLSTSTGYPDDRRGNEEITYGNPGLKPMKSSQADLSLEYYYGDGNLVSATYFIKDISNFIVATTQYNQQIGVVNNDLETPADNWTVNNYENAGGGEIDGIELQLNHAFENGFGVNANYTYADGTAPAEVYTDNIGMFTESSKHSANLVGYWENDDFSARAAYNWRSEYMVREYGKYYGNRMHDAFGTLDVTLGWNVTEAIALRLEIVNLTAEDDVQYGAAGVGTEVKPALQDDFPAWSFKGETTYKLGASFVFEGHHHHHH” was “not soluble”. For “MKDTLMSIQIIPKTPNNDNVIPYVDEAIKIIDESGMHFRVGPLETTVQGNMNECLILIQSLNERMVELECPSIISQVKFYHVPDGITIETLTEKYDELEHHHHHH”, the “soluble on expression in E. coli” value is recorded as “soluble”. On to “MGSDKIHHHHHHMANNIQGFVMIGAQAIVFSITNLRTLKTIERGRYPVAIGDDFYAEHEILPDTVDAIVQAFDAINQIFKDYGVPTVNVFASTSWAEADNAEFVRDQLYTRTGWLIKTTSLSEEAFFRTQAIMVKFPQFKSITQKGTVLIDISSGSVELTTFSNGVFGFSRNLSLGPLRVYEIMSDVQRSVTNYVEVMRDYIDSRLLDFMRLLPQGVEYTNMILMGSNLSIFQNIIPEGKHQVETDRPGFDLLYDEVTKASDQYLADTYDLTSDQTSLVLPTVLLVYRLVETLNSQSIWISDLKAIDGIEVNAAHEGGFKKLGFDPNEEIVISANNLAERYQVDEAHMQATRTVALQLFDRLKKLHGMGKRERLLLEVAATVSDIGSYIETHKHYAHSNYIIKASEIMGLNDLEVTMVATITRFHSSITPQSDLKNFPTMSTENRLVVAKLSALLRVADSLDASRQQKIQQLRVSVKPNEVLLTARADDDIELERWTLARKGKFFSEVFGLGLELKGRNIL”, for which the “soluble on expression in E. coli” value is “not soluble”. The value for “MDKNINISVKVWRQKGPKEKGHFETYQLQNISQSASFLEMMDILNEQLIKEHKAPVVFDHDCREGICGMCSLYINGHPHGPDDSITTCQLHMRRFDDGDTITIEPWRSAGFPVIRDLMVDRSAYDKIIQSGGFVSVNTGGIPDANAIPISKKNADEAMDAAACIGCGACAAACKNGSAMLFVSAKVSQLALLPQGRIEAARRAKAMVAKMDELGFGNCTNTRACEMECPKNVSISHIARLNREYIVAKNRD” was “not soluble”; that for “MGSDKIHHHHHHMSTDTDDDSGSHGCKAPDSDGEVAENIAIVAFERKMDTAEDIVDGIGDRYESIDILEYHGDVFEEYWGEYDCFIGLMASGIAMRKTAHLLDDKWDDPAICVVDEELTWAIPITGGHHGANQVADDLASMGAVPAMTTASEAADKQGVEKQAKALDAHVVNGDSTVATNLAVLDDELGPIERLDGPKAVLVDDDVTVLKRNKDDGIVLGCGSVAGADVEQFHAAWEQALDEADLDRDDVEFVATGTRKADEEGMLAAAEEWGLGVIAFEKETLEGFEGPTPSRSKELIGWPGIAEASAIAAGSEHDLLAEKTRYDEAVTVAIGR” was “not soluble”.

In the case of “MGSDKIHHHHHHMILQVQPAKLIKRYKRFLADIELNCGEETTIHCANTGAMKGCAEPDDTVWYTTSTNTKRKYPFSWEITQSQDDHFICVNTLRANQLVEEALHLDLIKELSGFNELKREVKYGNENSRVDFLATYNNAPDTYIEVKSVTLLESGHGYFPDAVTTRGQKHLRELMDMVAQGHKAVLLFAVLHSGINDISAASHVDPIYAKLLKEARLAGVEIIAYKAGFSLQLGELDVKLVEKIPFIER”, the “soluble on expression in E. coli” value was “not soluble”.
